The values below come from patent publication US20200277355A1.

The target of one test is TNFR1. The test is described as follows: MST, fluorescently labelled TNFR1, TNF-α titrated, without SN10.
For test [1], the target named is TNFR2. Nature of the test: MST, fluorescently labelled TNFR2, TNF-α titrated, without SN10.
For test [2], the target named is TNFR2. The test is described as follows: MST competition, fluorescently labelled TNFR2, TNF-α titrated in the presence of 100 µM SN10.
The next test deals with TNF-α. The test is described as follows: MST, fluorescently labelled TNF-α, TNFR1 titrated, without SN10.

What is called Kd is the equilibrium constant for the complex coming apart. A higher Kd goes with lower affinity. In the case of TNF-α (ligand), the Kd with TNFR1 was determined as 116 nM; with TNFR2 [1], 328 nM. In the test with TNFR2 [2], the KD in the presence of 100µM SN10 turned out to be 384 nM.
In the test with TNF-α, TNFR1 (receptor) registered a Kd of 2.84 nM.
